These results are taken from patent publication US5739002A, “Method for reproducing in vitro the Proteolytic activity of the NS3 protease of hepatitis C virus (HCV)” (Istituto di Richerche di Biologia Molecolare P. Angeletti …, priority 1994, dated 1998).

Data set [1] concerns the target T1, HCV NS3 serine protease (Hepatitis C virus (isolate BK), UniProt P26663).
T1 construct: substrate NS5AB precursor
The data set is described as follows: Activation of HCV NS3 serine protease in an in vitro translation assay (rabbit reticulocyte extracts, NS5AB precursor substrate). The format is biochemical. From the text: The plasmids described in FIG. 1 can also be used for in vitro synthesis of mRNA coding for the respective HCV proteins using the purified RNA polymerase enzyme of the phage T7 (Promega).
Generally the plasmids derived from pCite-1^R were linearized using suitable restriction enzymes and transcribed using the protocols supplied by the manufacturer (Promega). These synthetic mRNA, could later be used to synthesize the corresponding proteins in extracts of rabbit reticulocytes in the presence of canine pancreas microsomal membranes. The reticulocyte extracts, the canine pancreas microsomal membranes, like all the other material required, were purchased from Promega, which also supplied the instructions for the in vitro protein syntheses process described above.
Programming the in vitro translation mixture with mRNA transcribed from pCite(NS3) it is possible to observe synthesis of a protein with the expected molecular weight (68 kDa) containing the entire NS3 serine protease domain. The mRNA transcribed from pCite(NS5AB) guides the synthesis of a precursor of 115 kDa which contains NS5A and NS5B and is thus a substrate for the proteolytic activity associated with NS3.
This peptide was added to an in vitro translation mixture simultaneously programmed with the mRNAs transcribed from the plasmids pCite(NS3) and pCite(NS5AB).

Data set [2] addresses T2, recombinant NS3 serine protease (Hepatitis C virus (isolate BK), UniProt P26663).
T2 construct: NS4A/4B peptide substrate
The data set is described as follows: Assay of recombinant HCV NS3 serine protease purified from E. coli on a peptide substrate (NS4A/4B junction), HPLC. The format is biochemical. On the procedure:
The recombinant NS3 serine protease produced according to the above procedure in E. coli could be assayed for activity by cleaving a substrate that provides detectable cleavage products. The signal is preferably detectable by colorimetric or fluorometric means. Methods such as HPLC and the like are also suitable.
For example, we used, as a substrate, synthetic peptides corresponding to the NS4A/4B junction of the HCV polyprotein.
The activity assay is performed by incubating 5-1000 μM substrate and 0.05-1 μM protease in buffer containing 25 mM Tris/HCl pH 7.5, 3 mM dithiothreitol, 0.5% (w/v) CHAPS and 10% (v/v) glycerol for 1-3 hours at 22° C. The reaction is stopped by addition of trifluoracetic acid to yield a final concentration of 0.1% (w/v).
The reaction products are then separated by HPLC on a C18 reverse phase column and quantitated according to their absorbance of the far UV light.

The target of data set [3] is T1, HCV NS3 serine protease. The data set is described as follows: Activation of HCV NS3 serine protease in cultivated HeLa cells (vTF7-3 infection, plasmid cotransfection, immunoprecipitation). The format is cell-based. As to conditions: NS4A expressed transiently in HeLa cells together with the NS3 serine protease domain; no cleavage without NS4A.

T1 sequence (P26663 1007-1615): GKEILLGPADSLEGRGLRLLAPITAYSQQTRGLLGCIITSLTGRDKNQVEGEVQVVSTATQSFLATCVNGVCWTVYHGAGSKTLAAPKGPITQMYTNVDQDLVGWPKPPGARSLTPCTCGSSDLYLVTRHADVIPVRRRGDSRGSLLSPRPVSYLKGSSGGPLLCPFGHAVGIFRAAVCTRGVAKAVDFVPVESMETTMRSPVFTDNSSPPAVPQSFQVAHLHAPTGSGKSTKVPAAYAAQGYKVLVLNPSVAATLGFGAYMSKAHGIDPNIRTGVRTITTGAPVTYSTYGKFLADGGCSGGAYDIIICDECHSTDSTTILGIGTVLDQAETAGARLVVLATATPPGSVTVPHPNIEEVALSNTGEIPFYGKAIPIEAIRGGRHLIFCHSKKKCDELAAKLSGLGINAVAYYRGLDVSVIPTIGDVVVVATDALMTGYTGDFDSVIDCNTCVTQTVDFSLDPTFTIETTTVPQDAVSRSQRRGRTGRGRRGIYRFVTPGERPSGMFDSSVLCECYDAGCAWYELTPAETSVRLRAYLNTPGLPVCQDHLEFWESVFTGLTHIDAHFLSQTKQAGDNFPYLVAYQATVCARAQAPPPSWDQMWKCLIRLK
T2 sequence (P26663 1027-1206): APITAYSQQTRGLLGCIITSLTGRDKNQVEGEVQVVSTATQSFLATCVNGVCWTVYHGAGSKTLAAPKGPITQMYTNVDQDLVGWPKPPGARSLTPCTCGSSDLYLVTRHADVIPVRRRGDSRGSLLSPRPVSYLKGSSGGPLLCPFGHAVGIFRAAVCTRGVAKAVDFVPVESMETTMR

Take “SEQ ID NO:3: Synthetic peptide derived from the C-terminal portion of SEQ ID NO:2 (NS4A); carboxy terminal cysteine replaced with alpha-aminobutyric acid (Abu)”: the “proteolytic activity of the NS3 serine protease domain on NS5AB substrate” value in the data set with HCV NS3 serine protease [1] (peptide added to in vitro translation mixture programmed with mRNAs from pCite(NS3) and pCite(NS5AB)) is “proteolytic cleavage of the substrate in the two products containing the proteins NS5A and NS5B”. Further, in data set [2] (increasing amounts of peptide, NS4A/4B junction peptide substrate, pH 7.5, 22° C., HPLC), the “stimulation of the proteolytic activity of the recombinant NS3 serine protease” value is recorded as “up to 20 fold”. For the same substance, the “peptide to protease ratio at which maximal activity is reached” value in data set [2] (recombinant NS3 serine protease and synthetic peptide) was “equimolar amounts”.
With “NS4A: HCV non-structural hydrophobic protein of 6 kDa acting as cofactor of the NS3 serine protease”, the “serine protease activity of NS3 on a substrate containing NS5A and NS5B” value with HCV NS3 serine protease [1] (in vitro translation, protein sequence containing NS4A present in addition to the NS3 protease domain, no activity with NS3 domain alone) is on record as “serine protease activity of NS3 becomes evident”. In addition, the “activation of the proteolytic activity associated with NS3 (cleavage of the precursor encoded by pCite(NS4B5A))” value with HCV NS3 serine protease [3] is given as “can thus activate the proteolytic activity associated with NS3”.
